Assay results reported in paper PMC7234994, “Structural insights into the inhibition mechanism of human sterol O-acyltransferase 1 by a competitive inhibitor” (Nature Communications, 2020).

Key:
[1] = biological target: the molecule itself; assay: SEC; fluorescence-detection SEC (FSEC) of N-terminal GFP-tagged hSOAT1 solubilized in detergent micelles; elution compared with dimeric mouse TPC1 (189 kDa)
[2] = biological target: the molecule itself; assay: cryo-EM structure; hSOAT1 full length in detergent micelles with CI-976; one 3D class refined to 12 Å
[3] = biological target: the molecule itself; assay: cryo-EM structure; hSOAT1 66-550 in nanodisc (MSP2X) with inhibitor CI-976; 3.5 Å, C2 symmetry

| Protein | stoichiometry N [1] | other results |
| --- | --- | --- |
| N-terminal GFP-tagged full-length human SOAT1 (1-550) (enzyme, UniProt P35610 1-550, looked up, human sterol O-acyltransferase 1 (SOAT1), full-length, residues 1-550; BacMam vector with N-terminal His7-strep-GFP tags; detected by GFP fluorescence in FSEC; also called hSOAT1; sterol O-acyltransferase 1; source: solubilized in detergent micelles; not shown: GFP, N-terminal, kept) MVGEEKMSLRNRLSKSRENPEEDEDQRNPAKESLETPSNGRIDIKQLIAKKIKLTAEAEELKPFFMKEVGSHFDDFVTNLIEKSASLDNGGCALTTFSVLEGEKNNHRAKDLRAPPEQGKIFIARRSLLDELLEVDHIRTIYHMFIALLILFILSTLVVDYIDEGRLVLEFSLLSYAFGKFPTVVWTWWIMFLSTFSVPYFLFQHWATGYSKSSHPLIRSLFHGFLFMIFQIGVLGFGPTYVVLAYTLPPASRFIIIFEQIRFVMKAHSFVRENVPRVLNSAKEKSSTVPIPTVNQYLYFLFAPTLIYRDSYPRNPTVRWGYVAMKFAQVFGCFFYVYYIFERLCAPLFRNIKQEPFSARVLVLCVFNSILPGVLILFLTFFAFLHCWLNAFAEMLRFGDRMFYKDWWNSTSYSNYYRTWNVVVHDWLYYYAYKDFLWFFSKRFKSAAMLAVFAVSAVVHEYALAVCLSFFYPVLFVLFMFFGMAFNFIVNDSRKKPIWNVLMWTSLFLGNGVLLCFYSQEWYARQHCPLKNPTFLDYVRPRSWTCRYVF | 4 |  |
| N-terminal GFP-tagged N-terminal truncated human SOAT1 (66-550) (domain or fragment, UniProt P35610 66-550, looked up, human sterol O-acyltransferase 1 (SOAT1), residues 66-550 (N-terminal tetramerization domain deleted); also called hSOAT1 dimer; SOAT1-dimer (66-550); source: HEK293F, transfected, solubilized with 1% GDN (supernatant, not purified); not shown: GFP, N-terminal, kept) MKEVGSHFDDFVTNLIEKSASLDNGGCALTTFSVLEGEKNNHRAKDLRAPPEQGKIFIARRSLLDELLEVDHIRTIYHMFIALLILFILSTLVVDYIDEGRLVLEFSLLSYAFGKFPTVVWTWWIMFLSTFSVPYFLFQHWATGYSKSSHPLIRSLFHGFLFMIFQIGVLGFGPTYVVLAYTLPPASRFIIIFEQIRFVMKAHSFVRENVPRVLNSAKEKSSTVPIPTVNQYLYFLFAPTLIYRDSYPRNPTVRWGYVAMKFAQVFGCFFYVYYIFERLCAPLFRNIKQEPFSARVLVLCVFNSILPGVLILFLTFFAFLHCWLNAFAEMLRFGDRMFYKDWWNSTSYSNYYRTWNVVVHDWLYYYAYKDFLWFFSKRFKSAAMLAVFAVSAVVHEYALAVCLSFFYPVLFVLFMFFGMAFNFIVNDSRKKPIWNVLMWTSLFLGNGVLLCFYSQEWYARQHCPLKNPTFLDYVRPRSWTCRYVF | 2 |  |
| human SOAT1 full-length (1-550), purified, tags removed (enzyme, UniProt P35610 1-550, looked up, human sterol O-acyltransferase 1 (SOAT1), full-length, residues 1-550; Studied in digitonin/GDN micelles and in MSP2N2 nanodiscs with soybean polar lipids; also called hSOAT1; hSOAT1 tetramer; source: HEK293F, BacMam infected, purified (strep-tactin, PreScission, superose-6); not shown: His7, N-terminal, cleaved; strep, N-terminal, cleaved; GFP, N-terminal, cleaved) MVGEEKMSLRNRLSKSRENPEEDEDQRNPAKESLETPSNGRIDIKQLIAKKIKLTAEAEELKPFFMKEVGSHFDDFVTNLIEKSASLDNGGCALTTFSVLEGEKNNHRAKDLRAPPEQGKIFIARRSLLDELLEVDHIRTIYHMFIALLILFILSTLVVDYIDEGRLVLEFSLLSYAFGKFPTVVWTWWIMFLSTFSVPYFLFQHWATGYSKSSHPLIRSLFHGFLFMIFQIGVLGFGPTYVVLAYTLPPASRFIIIFEQIRFVMKAHSFVRENVPRVLNSAKEKSSTVPIPTVNQYLYFLFAPTLIYRDSYPRNPTVRWGYVAMKFAQVFGCFFYVYYIFERLCAPLFRNIKQEPFSARVLVLCVFNSILPGVLILFLTFFAFLHCWLNAFAEMLRFGDRMFYKDWWNSTSYSNYYRTWNVVVHDWLYYYAYKDFLWFFSKRFKSAAMLAVFAVSAVVHEYALAVCLSFFYPVLFVLFMFFGMAFNFIVNDSRKKPIWNVLMWTSLFLGNGVLLCFYSQEWYARQHCPLKNPTFLDYVRPRSWTCRYVF |  | stoichiometry N [2]: 4 |
| human SOAT1 dimer construct (66-550), purified, tags removed (domain or fragment, UniProt P35610 66-550, looked up, human sterol O-acyltransferase 1 (SOAT1), residues 66-550; residues 66-117 invisible in the map; Reconstituted into MSP2X nanodiscs; also called hSOAT1 dimer; hSOAT1 66-550; source: HEK293F, BacMam infected, purified (strep-tactin, PreScission, superose-6); not shown: His7, N-terminal, cleaved; strep, N-terminal, cleaved; GFP, N-terminal, cleaved) MKEVGSHFDDFVTNLIEKSASLDNGGCALTTFSVLEGEKNNHRAKDLRAPPEQGKIFIARRSLLDELLEVDHIRTIYHMFIALLILFILSTLVVDYIDEGRLVLEFSLLSYAFGKFPTVVWTWWIMFLSTFSVPYFLFQHWATGYSKSSHPLIRSLFHGFLFMIFQIGVLGFGPTYVVLAYTLPPASRFIIIFEQIRFVMKAHSFVRENVPRVLNSAKEKSSTVPIPTVNQYLYFLFAPTLIYRDSYPRNPTVRWGYVAMKFAQVFGCFFYVYYIFERLCAPLFRNIKQEPFSARVLVLCVFNSILPGVLILFLTFFAFLHCWLNAFAEMLRFGDRMFYKDWWNSTSYSNYYRTWNVVVHDWLYYYAYKDFLWFFSKRFKSAAMLAVFAVSAVVHEYALAVCLSFFYPVLFVLFMFFGMAFNFIVNDSRKKPIWNVLMWTSLFLGNGVLLCFYSQEWYARQHCPLKNPTFLDYVRPRSWTCRYVF |  | stoichiometry N [3]: 2 |
